# Test results taken from US20150078996A1 (Merck Sharp & Dohme, published 2015).
# B1: monoclonal antibody 2D10 (antibody, V domains shown)
# VH: EVNLVESGGILVKPGGSLRLSCAASGFTFSNYAMSWVRQTPEKRLEWVASIGSAGYIHYPDSVKGRFTISRDNARNILYLQMSSLRSEDTAMYYCAREGGLVWFAYWGQGTLVTVSA
# VL: ETTVTQSPASLSVATGEKVTIRCITSTDIDDDMNWYQQKPGEPPKLLISEGNTLRPGVPSRFSSSGYGTDFVLTIENTLSEDVADYYCLQSDKMPLTFGAGTKLELK
# B2: mouse monoclonal antibody 7C10 (anti-IGF-1R) (antibody, from another filing, V domains shown)
# VH: DVQLQESGPGLVKPSQSLSLTCSVTGYSITGGYLWNWIRQFPGNKLEWMGYISYDGTNNYKPSLKDRISITRDTSKNQFFLKLNSVTNEDTATYYCARYGRVFFDYWGQGTTLTVSS
# VL: DVLMTQIPLSLPVSLGDQASISCRSSQSIVHSNGNTYLQWYLQKPGQSPKLLIYKVSNRLYGVPDRFSGSGSGTDFTLKISSVEAEDLGVYYCFQGSHVPWTFGGGTKLEIK
# B3: mouse monoclonal antibody 12B1 (anti-IGF-1R) (antibody, mouse IgG1, V domains shown)
# VH: QVQLKESGPDLVAPSQSLSITCTVSGFSLTNYGVHWVRQFPGKGLEWLGVIWAGGNTNYNSALMSRLTISKDNSKSQVFLKMNSLQTDDTAVYYCAREYGSTYVAWFAHWGQGTLVTVSS
# VL: ENVLTQSPAIMSASPGEKVTMTCGASSSVSSSFLHWYQQKSGASPKLWIYSTSNLASGVPTRFSGSGSGTSYSLTISSVEAEDAATYYCQQYSGYPLTFGAGTKLELK
# notes: also called MAb 12B1; clone 12B1
# B4: monoclonal antibody 12D5 (antibody, V domains shown)
# VH: QVQLKESGPGLVAPSQSLSITCTVSGFSLNEYGVSWIRQPPGKGLEWLGVIWGGRDTYYHSPLKSRLSITKDNSKSQVFLKMNSLQTDDTAMYYCAKHEGMDYWGQGTSVTVSS
# VL: DIVMTQSQKFMSTSVGDRVSVTCKASQNVVTNVAWYQHKPGHSPKPLIYSASYRYSGVPDRFTGSGSGTDFTLTINNVQSEDLAEYFCHQYNNFPLTFGAGTKLELK
# Assays:
# [1] = target: IR (insulin receptor) expressed on baculovirus-infected Sf9 insect cells (UniProt P06213); assay: flow cytometry on Sf9 cells expressing IR
# [2] = target: IGF-IR expressed on baculovirus-infected Sf9 insect cells (UniProt P08069); assay: flow cytometry on Sf9 cells expressing IGF-IR
# [3] = target: IGF-IR expressed on baculovirus-infected Sf9 insect cells (UniProt P08069); assay: flow cytometry on Sf9 cells expressing IGF-IR, secondary antibody alone
# [4] = target: IR (insulin receptor) expressed on baculovirus-infected Sf9 insect cells (UniProt P06213); assay: flow cytometry on Sf9 cells expressing IR, secondary antibody alone
# [5] = target: T1, IGF-IR expressed on baculovirus-infected Sf9 insect cells (UniProt P08069 31-1367, limits assumed); assay: flow cytometry on Sf9 cells expressing IGF-IR
# T1 construct: whole, on cells; also called IGF-1R + cells
# [6] = target: T2, IR (insulin receptor) expressed on baculovirus-infected Sf9 insect cells (UniProt P06213 28-1382, limits assumed); assay: flow cytometry on Sf9 cells expressing IR
# T2 construct: whole, on cells; also called IR + cells
# [7] = target: full length hIGF-1R from membrane extracts of NIH 3T3 cells overexpressing IGF-1R (human) (UniProt P08069); assay: displacement of 125I-IGF-1 from hIGF-1R captured on FlashPlate
# [8] = target: recombinant human IGF-1R extracellular domains (R&D Systems) (human) (UniProt P08069); assay: SPR Biacore X, 5 min injection of 8.24 µg/ml over 439 RU of amine-coupled soluble IGF-1R
# [9] = target: recombinant human IGF-1R extracellular domains (R&D Systems) (human) (UniProt P08069); assay: SPR Biacore X, 5 min injection of 7.4 µg/ml over 439 RU of amine-coupled soluble IGF-1R
# [10] = target: T2, IR (insulin receptor) expressed on …; assay: flow cytometry on Sf9 cells expressing IR; remark: listed apart in the source
# Source text: At this stage of the selection process, only hybridomas secreting monoclonal antibodies that recognized both the recombinant and the native receptors were selected, cloned, produced and then purified before being tested by FACScan analysis, according to the method described above, on Sf9 insect cells expressing either IGF-IR or IR in order to eliminate hybridomas recognizing both the two receptors.
# [11] = target: T3, recombinant human insulin receptor (IR) extracellular domains (R&D Systems) (human, UniProt P06213-2 28-944, limits assumed); assay: western blot after SDS-PAGE, 12B1 as probe
# T3 construct: extracellular domain; also called IR ECD
# Method: Proteins were analyzed by SDS-PAGE electrophoresis on Criterion 7% homogeneous polyacrylamide gels (BioRad, Marnes la Coquette, France) under reducing and non-reducing conditions. Equivalent quantities of 4, 20 and 100 ng were loaded for pure recombinant IR and IGF-1R ECD whereas higher protein quantities, from 0.2 to 6 μg, were needed for membrane extracts to detect IGF-1R by western blot. Proteins were transferred onto nitrocellulose membrane. […] Proteins were further detected by chemiluminescence (ECL, Amersham Biosciences, Orsay, France) after incubation with a horseradish peroxidase-conjugated anti-mouse IgG polyclonal antibody (Amersham Biosciences, 1:3,000 dilution) for 1 h at room temperature and extensive washes.
molecule,measurement,setting,value
commercially available anti-IGF-1R antibody αIR3,MFI,[1],32
same,MFI,[2],35
secondary anti-species antibody coupled to a fluorochrome (Anti-Mouse FITC),MFI,[3],9
same,MFI,[4],13
B1,MFI,[5],42.5
same,MFI,[6],10.6
B2,IC50,[7],0.2 nM
same,response (RU),[8],180 RU
B3,MFI,[5],54
same,response (RU),[9],146 RU
same,MFI,[6],10.5
same,binding result,[10],no binding
same,binding result,[11],no binding (tested: 100 ng per lane)
B4,MFI,[5],50
same,MFI,[6],10.6
